Patent US20220211857A1, “POLYPEPTIDE DERIVATIVE AND PREPARATION METHOD THEREOF” (NINGBO KUNPENG BIOTECH CO., LTD., priority 2019, published 2022)
Where a SMILES comes first, the peptide text is derived from it. The star is where a group is joined. X2 = O=C(O)CCCCCCCCCCCCCCC(=O)NC(CCC(=O)NCCn1cc(CCOC(=O)*)nn1)C(=O)O

Experiments:
[1] = Pharmacokinetics studies of GLP-1 derivatives in rats (single subcutaneous injection, LC-MS/MS, NCA); conditions: rat; for half-lives (in words): experiment of Example 8 repeated in the same way
Description: The experiment comprised a reference substance group and a test substance group. GLP-1 and L6-GFA16-GLP-1 were injected subcutaneously with a single administration of 0.5 mg/kg, respectively. Animals in each group were collected blood at 15 min, 30 min, 1 h, 2 h, 3 h, 5 h, 7 h, 12 h, and 24 h after administration. LC-MS/MS analysis method was used to detect contents of different GLP-1 analogues.

[2] = Pharmacokinetics studies of PTH-1 derivatives in rats (single subcutaneous injection, LC-MS/MS, NCA); format: in vivo; conditions: rat, experiment of Example 10 repeated in the same way
Description: PTH-1 and L6-GFA16-PTH-1 were injected subcutaneously with a single administration of 8.6 μg/kg, respectively. Animals in each group were collected blood at 0 min, 5 min, 15 min, 30 min, 1 h, 2 h, and 4 h after administration. […] Exposure time of drugs in vivo was prolonged and exposure doses were increased.

| Compound | half-lives (in words) [1] | also measured |
| --- | --- | --- |
| CC[C@H](C)[C@H](NC(=O)[C@H](Cc1ccccc1)NC(=O)[C@H](CCC(=O)O)NC(=O)[C@H](CCCCNC(=O)OCCc1cn(CCNC(=O)CCC(NC(=O)CCCCCCCCCCCCCCC(=O)O)C(=O)O)nn1)NC(=O)[C@H](C)NC(=O)[C@H](C)NC(=O)[C@H](CCC(N)=O)NC(=O)CNC(=O)[C@H](CCC(=O)O)NC(=O)[C@H](CC(C)C)NC(=O)[C@H](Cc1ccc(O)cc1)NC(=O)[C@H](CO)NC(=O)[C@H](CO)NC(=O)[C@@H](NC(=O)[C@H](CC(=O)O)NC(=O)[C@H](CO)NC(=O)[C@@H](NC(=O)[C@H](Cc1ccccc1)NC(=O)[C@@H](NC(=O)CNC(=O)[C@H](CCC(=O)O)NC(=O)[C@H](C)NC(=O)[C@@H](N)Cc1c[nH]cn1)[C@@H](C)O)[C@@H](C)O)C(C)C)C(=O)N[C@@H](C)C(=O)N[C@@H](Cc1c[nH]c2ccccc12)C(=O)N[C@@H](CC(C)C)C(=O)N[C@H](C(=O)N[C@@H](CCCCN)C(=O)NCC(=O)N[C@@H](CCCNC(=N)N)C(=O)NCC(=O)O)C(C)C (stereo partly shown) [L0-GFA16-GLP-1] | significantly prolonged | – |
| CC[C@H](C)[C@H](NC(=O)[C@H](CCC(=O)O)NC(=O)[C@H](CO)NC(=O)[C@@H](NC(=O)[C@@H](N)CO)C(C)C)C(=O)N[C@@H](CCC(N)=O)C(=O)N[C@@H](CC(C)C)C(=O)N[C@@H](CCSC)C(=O)N[C@@H](Cc1c[nH]cn1)C(=O)N[C@@H](CC(N)=O)C(=O)N[C@@H](CC(C)C)C(=O)NCC(=O)N[C@@H](CCCNC(=N)N)C(=O)N[C@@H](Cc1c[nH]cn1)C(=O)N[C@@H](CC(C)C)C(=O)N[C@@H](CC(N)=O)C(=O)N[C@@H](CO)C(=O)N[C@@H](CCSC)C(=O)N[C@@H](CCC(=O)O)C(=O)N[C@@H](CCCNC(=N)N)C(=O)N[C@H](C(=O)N[C@@H](CCC(=O)O)C(=O)N[C@@H](Cc1c[nH]c2ccccc12)C(=O)N[C@@H](CC(C)C)C(=O)N[C@@H](CCCNC(=N)N)C(=O)N[C@@H](CCCCNC(=O)OCCc1cn(CCNC(=O)CCC(NC(=O)CCCCCCCCCCCCCCC(=O)O)C(=O)O)nn1)C(=O)N[C@@H](CCCNC(=N)N)C(=O)N[C@@H](CC(C)C)C(=O)N[C@@H](CCC(N)=O)C(=O)N[C@@H](CC(=O)O)C(=O)N[C@H](C(=O)N[C@@H](Cc1c[nH]cn1)C(=O)N[C@@H](CC(N)=O)C(=O)N[C@@H](Cc1ccccc1)C(=O)O)C(C)C)C(C)C (stereo partly shown) [L0-GFA16-PTH] (H-SVSEIQLMHNLGRHLNSMERVEWLRK(X2)RLQDVHNF-OH) | – | half-lives (in words) [2]: significantly prolonged |
| CC[C@H](C)[C@H](NC(=O)[C@H](Cc1ccccc1)NC(=O)[C@H](CCC(=O)O)NC(=O)[C@H](CCCCNC(=O)OCCc1cn(CCOCCOCCNC(=O)CCC(NC(=O)CCCCCCCCCCCCCCC(=O)O)C(=O)O)nn1)NC(=O)[C@H](C)NC(=O)[C@H](C)NC(=O)[C@H](CCC(N)=O)NC(=O)CNC(=O)[C@H](CCC(=O)O)NC(=O)[C@H](CC(C)C)NC(=O)[C@H](Cc1ccc(O)cc1)NC(=O)[C@H](CO)NC(=O)[C@H](CO)NC(=O)[C@@H](NC(=O)[C@H](CC(=O)O)NC(=O)[C@H](CO)NC(=O)[C@@H](NC(=O)[C@H](Cc1ccccc1)NC(=O)[C@@H](NC(=O)CNC(=O)[C@H](CCC(=O)O)NC(=O)[C@H](C)NC(=O)[C@@H](N)Cc1c[nH]cn1)[C@@H](C)O)[C@@H](C)O)C(C)C)C(=O)N[C@@H](C)C(=O)N[C@@H](Cc1c[nH]c2ccccc12)C(=O)N[C@@H](CC(C)C)C(=O)N[C@H](C(=O)N[C@@H](CCCCN)C(=O)NCC(=O)N[C@@H](CCCNC(=N)N)C(=O)NCC(=O)O)C(C)C (stereo partly shown) [L2-GFA16-GLP-1] | significantly prolonged | – |
| CC[C@H](C)[C@H](NC(=O)[C@H](Cc1ccccc1)NC(=O)[C@H](CCC(=O)O)NC(=O)[C@H](CCCCNC(=O)OCCc1cn(CCOCCOCCOCCNC(=O)CCC(NC(=O)CCCCCCCCCCCCCCC(=O)O)C(=O)O)nn1)NC(=O)[C@H](C)NC(=O)[C@H](C)NC(=O)[C@H](CCC(N)=O)NC(=O)CNC(=O)[C@H](CCC(=O)O)NC(=O)[C@H](CC(C)C)NC(=O)[C@H](Cc1ccc(O)cc1)NC(=O)[C@H](CO)NC(=O)[C@H](CO)NC(=O)[C@@H](NC(=O)[C@H](CC(=O)O)NC(=O)[C@H](CO)NC(=O)[C@@H](NC(=O)[C@H](Cc1ccccc1)NC(=O)[C@@H](NC(=O)CNC(=O)[C@H](CCC(=O)O)NC(=O)[C@H](C)NC(=O)[C@@H](N)Cc1c[nH]cn1)[C@@H](C)O)[C@@H](C)O)C(C)C)C(=O)N[C@@H](C)C(=O)N[C@@H](Cc1c[nH]c2ccccc12)C(=O)N[C@@H](CC(C)C)C(=O)N[C@H](C(=O)N[C@@H](CCCCN)C(=O)NCC(=O)N[C@@H](CCCNC(=N)N)C(=O)NCC(=O)O)C(C)C (stereo partly shown) [L3-GFA16-GLP-1] | significantly prolonged | – |
| CC[C@H](C)[C@H](NC(=O)[C@H](Cc1ccccc1)NC(=O)[C@H](CCC(=O)O)NC(=O)[C@H](CCCCNC(=O)OCCc1cn(CCOCCOCCOCCOCCNC(=O)CCC(NC(=O)CCCCCCCCCCCCCCC(=O)O)C(=O)O)nn1)NC(=O)[C@H](C)NC(=O)[C@H](C)NC(=O)[C@H](CCC(N)=O)NC(=O)CNC(=O)[C@H](CCC(=O)O)NC(=O)[C@H](CC(C)C)NC(=O)[C@H](Cc1ccc(O)cc1)NC(=O)[C@H](CO)NC(=O)[C@H](CO)NC(=O)[C@@H](NC(=O)[C@H](CC(=O)O)NC(=O)[C@H](CO)NC(=O)[C@@H](NC(=O)[C@H](Cc1ccccc1)NC(=O)[C@@H](NC(=O)CNC(=O)[C@H](CCC(=O)O)NC(=O)[C@H](C)NC(=O)[C@@H](N)Cc1c[nH]cn1)[C@@H](C)O)[C@@H](C)O)C(C)C)C(=O)N[C@@H](C)C(=O)N[C@@H](Cc1c[nH]c2ccccc12)C(=O)N[C@@H](CC(C)C)C(=O)N[C@H](C(=O)N[C@@H](CCCCN)C(=O)NCC(=O)N[C@@H](CCCNC(=N)N)C(=O)NCC(=O)O)C(C)C (stereo partly shown) [L4-GFA16-GLP-1] | significantly prolonged | – |
| CC[C@H](C)[C@H](NC(=O)[C@H](Cc1ccccc1)NC(=O)[C@H](CCC(=O)O)NC(=O)[C@H](CCCCNC(=O)OCCc1cn(CCNC(=O)COCCOCCNC(=O)COCCOCCNC(=O)CCC(NC(=O)CCCCCCCCCCCCCCC(=O)O)C(=O)O)nn1)NC(=O)[C@H](C)NC(=O)[C@H](C)NC(=O)[C@H](CCC(N)=O)NC(=O)CNC(=O)[C@H](CCC(=O)O)NC(=O)[C@H](CC(C)C)NC(=O)[C@H](Cc1ccc(O)cc1)NC(=O)[C@H](CO)NC(=O)[C@H](CO)NC(=O)[C@@H](NC(=O)[C@H](CC(=O)O)NC(=O)[C@H](CO)NC(=O)[C@@H](NC(=O)[C@H](Cc1ccccc1)NC(=O)[C@@H](NC(=O)CNC(=O)[C@H](CCC(=O)O)NC(=O)[C@H](C)NC(=O)[C@@H](N)Cc1c[nH]cn1)[C@@H](C)O)[C@@H](C)O)C(C)C)C(=O)N[C@@H](C)C(=O)N[C@@H](Cc1c[nH]c2ccccc12)C(=O)N[C@@H](CC(C)C)C(=O)N[C@H](C(=O)N[C@@H](CCCCN)C(=O)NCC(=O)N[C@@H](CCCNC(=N)N)C(=O)NCC(=O)O)C(C)C (stereo partly shown) [L6-GFA16-GLP-1] | – | Exposure time in vivo ([1]; s.c. 0.5 mg/kg, versus GLP-1): prolonged; exposure doses ([1]; s.c. 0.5 mg/kg, versus GLP-1): increased significantly |
